Source: US20250352661A1 (MYTHIC THERAPEUTICS, published 2025)

What was measured:
Experiment in all cases: cell-based or functional assay
[1] = target: T1, LRRC15 on the surface of LRRC15+ cells (SAOS-2, U87MG) (UniProt Q8TF66 22-581, limits assumed)
T1 sequence (looked up): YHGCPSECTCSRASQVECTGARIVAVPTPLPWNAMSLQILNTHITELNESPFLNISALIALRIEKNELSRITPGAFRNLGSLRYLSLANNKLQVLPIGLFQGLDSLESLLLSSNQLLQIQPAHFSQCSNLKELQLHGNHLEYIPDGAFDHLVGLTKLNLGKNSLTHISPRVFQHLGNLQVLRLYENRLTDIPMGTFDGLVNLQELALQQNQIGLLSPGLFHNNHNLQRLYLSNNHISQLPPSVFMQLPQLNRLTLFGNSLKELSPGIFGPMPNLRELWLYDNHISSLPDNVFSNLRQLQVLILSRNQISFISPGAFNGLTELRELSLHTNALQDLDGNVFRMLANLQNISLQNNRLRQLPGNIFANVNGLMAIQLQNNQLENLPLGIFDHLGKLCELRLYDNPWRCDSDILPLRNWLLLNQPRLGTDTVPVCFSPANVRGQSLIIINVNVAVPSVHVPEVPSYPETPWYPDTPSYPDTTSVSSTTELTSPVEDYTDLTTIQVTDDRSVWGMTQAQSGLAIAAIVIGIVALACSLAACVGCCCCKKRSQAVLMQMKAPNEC

[2] = target: T1, LRRC15 on the surface of LRRC15+ cells …; remark: listed apart in the source
[3] = target: T1, LRRC15 on the surface of LRRC15+ cells …; remark: listed apart in the source
[4] = target: T1, LRRC15 on the surface of LRRC15+ cells …; remark: listed apart in the source

Row | Binder | Cytotoxicity against SAOS-2 cells, Fold over MYT5438 (mAb complexed with MMAF-conjugated secondary antibody, CTG assay) [1] | Internalization in U87MG cells (10 nM, 24 hours), FOB = fold over background (IgG control) [2] | Internalization in U87MG cells (10 nM, 24 hours), FOS = fold over samrotamab [2] | Internalization in SAOS-2 cells (10 nM, 24 hours), FOB = fold over background (IgG control) [3] | Internalization in SAOS-2 cells (10 nM, 24 hours), FOS = fold over samrotamab [3] | 20 nM Efficacy (cytotoxicity of candidates against SAOS-2 cells) [4]
1 | MYT8391 (antibody, V domains shown) VH: EVQLVESGGGLVQPGGSLRLSCTASGLDFRRTNYICWVRQAPGKGLEWVGCIYIADVVHYYASWAKGRFTFSRDTSKNTVYLQMNSLRAEDTAVYYCARGADGGFHYGMDLWGQGTLVTVSS VL: EIVMTQSPSTLSASVGDRVIITCQASQSIGNYLSWYQQKPGKAPKRLIYSASTLPSGVPSRFSGSGSGAEFTLTISSLQPDDFATYYCQNNYWLAGYGHPFGQGTKLTVL | 1.14 fold over MYT5438 | 3.13 fold over background (IgG control) | 2.49 fold over samrotamab | 2.94 fold over background (IgG control) | 1.2 fold over samrotamab | –
2 | MYT8416 (antibody, V domains shown) VH: EVQLVESGGGLVQPGGSLRLSCTASGLDFRRTNYICWVRQAPGKGLEWVGCIYIADVVHYYASWAKGRFTFSRDTSKNTVYLQMNSLRAEDTAVYYCARGADGGFVYGMDLWGQGTLVTVSS VL: EIVMTQSPSTLSASVGDRVIITCQASQSIGNYLSWYQQKPGKAPKRLIYSASTLPSGVPSRFSGSGSGAEFTLTISSLQPDDFATYYCQNNYHLAGYGHPFGQGTKLTVL | 1.13 fold over MYT5438 | 3.05 fold over background (IgG control) | 2.39 fold over samrotamab | 2.71 fold over background (IgG control) | 1.05 fold over samrotamab | –
3 | MYT8415-c-ADC (antibody, human IgG1, kappa, V domains shown, vcMMAE conjugated to the cysteine at position 205 of the light chain) VH: EVQLVESGGGLVQPGGSLRLSCTASGLDFRRTNYICWVRQAPGKGLEWVGCIYIADVVHYYASWAKGRFTFSRDTSKNTVYLQMNSLRAEDTAVYYCARGADGGFVYGMDLWGQGTLVTVSS VL: EIVMTQSPSTLSASVGDRVIITCQASQSIGNYLSWYQQKPGKAPKRLIYSASTLPSGVPSRFSGSGSGAEFTLTISSLQPDDFATYYCQNNHWLAGYGHPFGQGTKLTVLR | – | – | – | – | – | 38.7
4 | MYT8417-c-ADC (antibody, human IgG1, kappa, V domains shown, vcMMAE conjugated to the cysteine at position 205 of the light chain) VH: EVQLVESGGGLVQPGGSLRLSCTASGLDFRRTNYICWVRQAPGKGLEWVGCIYIADVVHYYASWAKGRFTFSRDTSKNTVYLQMNSLRAEDTAVYYCARGADGGFVYGMDLWGQGTLVTVSS VL: EIVMTQSPSTLSASVGDRVIITCQASQSIGNYLSWYQQKPGKAPKRLIYSASTLPSGVPSRFSGSGSGAEFTLTISSLQPDDFATYYCQNNYWLAHYGHPFGQGTKLTVLR | – | – | – | – | – | 42.5
5 | MYT8094 (antibody, IgG1, V domains shown) VH: EVQLVESGGGLVQPGGSLRLSCTASGFSFSSSHWICWVRQAPGKGLEWVGCIYAGSIGSTYYASWAKGRFTISRDTSKNTVYLQMNSLRAEDTAVYYCARAPNDIYNYYFNLWGQGTLVTVSS VL: EIVMTQSPSTLSASVGDRVIITCQASENIYNYLAWYQQKPGKAPKLLIYYASTLASGVPSRFSGSGSGAEFTLTISSLQPDDFATYYCQSGYVSKSSTFGQGTKLTVL | 1.45 fold over MYT5438 | 3.52 fold over background (IgG control) | 2.94 fold over samrotamab | 3.15 fold over background (IgG control) | 1.32 fold over samrotamab | –
6 | MYT9521 (antibody, V domains shown) VH: EVQLVESGGGLVQPGGSLRLSCTASGFSFSSSHWICWVRQAPGKGLEWVGCIYAGSIGSTYYASWAKGRFTISRDTSKNTVYLQMNSLRAEDTAVYYCARAPNDIYNYYFNLWGQGTLVTVSS VL: EIVMTQSPSTLSASVGDRVIITCQASENIYNYLAWYQQKPGKAPKLLIYYASDLASGVPSRFSGSGSGAEFTLTISSLQPDDFATYYCQSGYVSKSSTFGQGTKLTVL | 1.49 fold over MYT5438 | 3.42 fold over background (IgG control) | 2.82 fold over samrotamab | 3.02 fold over background (IgG control) | 1.24 fold over samrotamab | –
7 | MYT9731 (antibody, V domains shown) VH: EVQLVESGGGLVQPGGSLRLSCTASGFSFSSSHWICWVRQAPGKGLEWVGCIYAGSIGSTYYASWAKGRFTISRDTSKNTVYLQMNSLRAEDTAVYYCARAPNDIYNYYFNLWGQGTLVTVSS VL: EIVMTQSPSTLSASVGDRVIITCQASEEIYNYLAWYQQKPGKAPKLLIYYASTLASGVPSRFSGSGSGAEFTLTISSLQPDDFATYYCQSGYVSKSSTFGQGTKLTVL | 1.05 fold over MYT5438 | – | – | – | – | –
8 | MYT8500 (antibody, V domains shown) VH: EVQLVESGGGLVQPGGSLRLSCTASGFSFSGSYWICWVRQAPGKGLEWVGCINGGSHDITYYASWAKGRFTISRDTSKNTVYLQKTSLRAEDTAVYYCASDTSYTAYGNFYFNLWGQGTLVTVSS VL: EIVMTQSPSPLSASVGDRVIITCQSSQSVLNNNWLAWYQQKPGKAPKLLIYDASSLASGVPSRFSGSGSGAEFTLTISSLQPDDFATYYCQGEFSCGSADCNAFGQGTKLTVL | 1.06 fold over MYT5438 | 2.65 fold over background (IgG control) | 1.93 fold over samrotamab | 2.68 fold over background (IgG control) | 1.03 fold over samrotamab | –
9 | MYT9776-c-ADC (antibody, human IgG1, kappa, V domains shown, vcMMAE conjugated to the cysteine at position 205 of the light chain) VH: EVQLVESGGGLVQPGGSLRLSCTASGFSFSGHYWICWVRQAPGKGLEWVGCIHGGSHDITYYASWAKGRFTISRDTSKNTVYLQKTSLRAEDTAVYYCASDTSYTAYGNFYFNLWGQGTLVTVSS VL: EIVMTQSPSPLSASVGDRVIITCQSSQSVLNNNWLAWYQQKPGKAPKLLIYDASSLASGVPSRFSGSGSGAEFTLTISSLQPDDFATYYCQGEFSCGSADCNAFGQGTKLEIKR | – | – | – | – | – | 66.3
10 | MYT8483-c-ADC (antibody, human IgG1, kappa, V domains shown, vcMMAE conjugated to the cysteine at position 205 of the light chain) VH: EVQLVESGGGLVQPGGSLRLSCTASGFSFSGSYWICWVRQAPGKGLEWVGCINGGSLDITYYASWAKGRFTISRDTSKNTVYLQKTSLRAEDTAVYYCASDTSYTAYGNFYFNLWGQGTLVTVSS VL: EIVMTQSPSPLSASVGDRVIITCQSSQSVLNNNWLAWYQQKPGKAPKLLIYDASSLASGVPSRFSGSGSGAEFTLTISSLQPDDFATYYCQGEFSCGSADCNAFGQGTKLTVLR | – | – | – | – | – | 29.4
